# In the nanobody polyreactivity screen of Harvey et al. (2022):
# Assay: yeast display, Sf9 membrane polyspecificity reagent, FACS + sequencing; frameworks hold sequencing errors
# How it was run: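 A synthetic nanobody library was expressed on Saccharomyces cerevisiae BJ5465 by galactose induction for 36–48 hours. The library was stained for 1 hour at 4 °C with 10% biotinylated, detergent-solubilized Sf9 membrane reagent and enriched with streptavidin microbeads before FACS. Low and high (top ~1%) gates were set on anti-HA fluorescence for expression and streptavidin fluorescence for reagent binding, and each polyreactivity label reflects the gate of origin.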
row,Sequence,polyreactivity (PSR sort gate)
1,QVQLVESAGGLVQAGGSLRLSCAASGRIFKFYTMGWYRQAPGKERELVAAISSSDGSTHYADSVKGRFTISRDNAKNTVYLQMNSLKPEDTAVYYCAAQGGRNRGYRYYWGQGTQVTVSS,high polyreactivity
2,QVQLVESAGGLVQAGGSLRLSCAASGRIFLYNAMGWYRQAPGKERELVAVISSNGGRTYYADSVKGRFTISRDNAKNTVYLQMNSLKPEDTAVYYCAAVQHYVTHMDYWGQGTQVTVSS,low polyreactivity
3,QVQLVESAGGLVQAGGSLRLSCAASGRIFRSNAMGWYRQAPGQERELVAAINNRDTSTYADSVKGRFTISRDNAKNTVYLQMNSLKPEDTAVFYCAARYQYYSTYGVTLDYWGQGSQVTVSS,low polyreactivity
4,QVQLVESAGGLVQAGGSLRLSCAASGRIFSRYAMGWYRQAPGKERELVAAITQSGTSTYYADSVKGRFTISRDNAKNTVYLQMNSLKPEDTAVYYCNAYRQYRYDYWGQGTQVTVSS,low polyreactivity
5,QVQLVESAGGLVQAGGSLRLSCAASGRIFVTNAMGLYRQAPGKEREFVAGISFSGDGRTYYADSVKGRFTISRDYAKNSVYFQMNSLKPEDTAVYYCAAPHRSRTHELDYWGLGTQVTVSS,low polyreactivity
6,QVQLVESAGGLVQAGGSLRLSCAASGRNFYYYAMGWYRQAPGKERELVAAISIGGITYADSVKGRFTISRDNAKNTVYLQMNRLKPEDTAVYYCAATARQSRGRYYWGQGTQVTVSS,low polyreactivity
7,QVQLVESAGGLVQAGGSLRLSCAASGRTFFRNAMGWYRQAPGKERELVAGITASGGNTYYADSVKGRFTISRDNAKNTVYLQMNSLKPEDTAVYFCNAVYSLARITRAGYGYWGQGPQVTVSS,high polyreactivity
8,QVQLVESAGGLVQAGGSLRLSCAASGRTFGRKAMVWSRQAPGERELGAVISRGGSTYYADTVKGRFTISRDNAKNTVYLQMNILKPEDTAVYYCNADTVYTRTGPYDYWGQGTQVTVSS,low polyreactivity
9,QVQLVESAGGLVQAGGSLRLSCAASGRTFRTYAMGWYRPAPVKERELVAAITSGGNTYYADSVKGRFTISRDNAKNTVYLQMNSLKPEDTAVYYCAAVQYFKVYYWGQGTQVTVSS,high polyreactivity
10,QVQLVESAGGLVQAGGSLRLSCAASGRTLSNYAMGWYREAPGKERELVAVISQSGGRTYYADSVKGRFTISRDNAKNTVYLQLNSLKPEDTAVYYCNVDISWLRRKFDYWGQVTQVTVSS,low polyreactivity
11,QVQLVESAGGLVQAGGSLRLSCAASGSIFDAYAMGWYRQAPGKERELVAAIIARGGSTYYADSVKGRFTISRDNAKTTVYLQMISLKPEDTAVSYCNRLSRVRRYIYDYWGQGTQVTVSS,high polyreactivity
12,QVQLVESAGGLVQAGGSLRLSCAASGSIFTYYAMGWYIQAPGKERELVAAISSDGGRTFYADSVKGRFTISRDNAKNTVYLQMNSLKPEDTAVYYCAAETNRFPGYGYWGQGTQVTVSS,low polyreactivity
13,QVQLVESAGGLVQAGGSLRLSCAASGSISAGNAMGWNRQAPGKERELVAAISGSGGSTYYADSVKGRFTISRYNAKNSVDLQMKSLKPEDTAVYYCAARGGYRLRYIPYVRYDYWGEGTQVTVSS,high polyreactivity
14,QVQLVESAGGLVQAGGSLRLSCAASGSTFGPYAMGWYRQVPGKERELVAGISYGGGTTFYADSVKGRFTISRDNAKYTVYLQMNSLKPEDTAVYYCAATYRPNRYLEGYWGQGTQVTVSS,high polyreactivity
15,QVQLVESAGGLVQAGGSLRLSCAASGSTFLSYFMGWYRQAPGKERELVAAITGTGGRTYYADSVKGRFTISRDNAKNTVYLQMNSLKPEDSAVYYCTAYRKHGYDYWGQGTQVTVSS,high polyreactivity
16,QVQLVESAGGLVQAGGSLRLSCAASGSTFRLNTMGWYRQEPGNERELVAGISYSGGSTYYADSVNGRFTISRDNAKNTVYLQMNSLKPEDTAVYYCNKRAWFSSKDDYWGQGTQVTVSS,high polyreactivity
17,QVQLVESAGGLVQAGGSLRLSCAASGSTFVTNVMGWYRQAPGKERELVAAISYSGGNTYFEDSVKGRFTISRDYAKNTVYLQMNSLKPEDTAVYSCAASYKPFKKMGYWGQGTQVTVSS,high polyreactivity
18,QVQLVESAGGLVQAGGSLRLSCAASGYTFPYYTMGWYRQAPGKERELVATITRRGDSTYYADSVKGRFTISRDNAKNTVYLQMNSLKPEDTAVYYCNTASYGRHQFRKSSKMDYWGQGTQVTVSS,high polyreactivity
19,QVQLVESAGGLVQAGGSLRLSCAASGYTFVNYAMGWYRQAPGKERELVAAISRSGGSTYYADSVKGRFTISRDHAKNTVYLQMNSLKPEDTAVYYCAKVVQGDHPYDYWGQGTQVTVSS,high polyreactivity
20,QVQLVESAGGLVQAGGSLRLSCAASGYTSSLNAMGWYRQAPGKERELVARITTDGTSTYYADSVKGRFTISRDNAKNTVYLQMNSLKPEDTAVYYCNKRSHLYGNTPYYYWGQGTQVTVSS,low polyreactivity
21,QVQLVESAGGLVQAGGSLRLSCAPSGSILASNAMGCYRQAPGKDRELVSAITTSGGSTYYADYVKGRFTISLDNAKNTVYLQMNSLKPEDTAVYYCNAEYSRGRWLRYGYWGQGTQVTVSS,high polyreactivity
22,QVQLVESAGGLVQAGGSLRLSCSASGLTFVPNAMGWYRQAPGKERELVATISSSGGRTTYADSVKGRFTISRDKAKNTVYLQMNSLKPEDTAVYYCADQGYWTGYDYWGQGTQVTVSS,high polyreactivity

row,Sequence,polyreactivity (PSR sort gate)
1,QVQLVESAGGLVQAGGSLRLSCSASGTIIWFYAMGWYRQAPGKERELVAAITRSGGSTYYADSVKGRFTISRDNAKNTVYLQMNSLKPEDTAVYYCAAGTVDYRGYFEMYYWGQGTQVTVSS,low polyreactivity
2,QVQLVESAGGLVQAGGSLRLSSAASAFTFYSNAMGWYRHAPGKEREFVAAGSTYYADSVKGRFTISRDNAKNTVYLQMNSLKPEDTAVYYCAADSYDVSRRYEYEYWGEGTQVTVSS,low polyreactivity
3,QVQLVESAGGLVQAGGSLRLTCDASGSTFGYYAMGLYRQAPGKEMELVAAITSNDGSTNYADSVKGRFTISRDNAKNTVYLQMNSLKPEDTAVYYCNARYFVAVISSFDYWGQGTQVTVSS,low polyreactivity
4,QVQLVESAGGLVQAGGSLSLSCAASGRTFIRHAMGRDRQAPGKERELVAAINSGGITNYADSVKGRFTISRVNAKNTVFLKRNSLKPEDTAVYYCAAYKPWYVGLYPWYDYWGQGTQVTVSW,low polyreactivity
5,QVQLVESAGGLVQAGGSLSLSCAASGSMFIYNAMGWYRQAPGKERELVATISSGGSTTYADSVKGRFTISRDNAKNTVYLQMNSLKPEDTAVYYCATDDPPDQYFYLGYYYWGANDYWGQGTQVTVSS,low polyreactivity
6,QVQLVESAGGLVQAGGSLSLSCAATGSILQEYAMGSYRQAPGTERELVAAITRRGGNTYYADSVKGRFTISRDNAKNTVYLQMNSLKPEDTAVYYCAAPHGKYSWQYEYWGQGTQVTVSS,low polyreactivity
7,QVQLVESAGGLVQAGRSLRLSCAASGYTFAKYTKGWYREATGKERELVAAISRGGSTTYADSVKGRFTISRDNAKNTVYLQMHSLKPEDTAVYYCAADVHRVVLEYDYWGQGTQVTVSS,low polyreactivity
8,QVQLVESAGGLVQAGVSLRLSCAASGFTFGWYAMGWYRQAPGKERELVATISWSGSSTYYADSVKGRFTISRDNAKNTVYVQMNSLKPDDTAVYYCNAVYGRFVVLRYDYWGQGTQVTVSS,high polyreactivity
9,QVQLVESAGGLVQAVGSHRLSSATSGSIFSGNSMGWYRQAPGTQSELVADISQNGGRTYYADSVKGRFTISRDNAKYTVYLQINSLKPEDTGVYYCAARGWYRYGSVYYIGDYWGQGTQGTVSS,high polyreactivity
10,QVQLVESARGLVQAGGSLRLSCAASGFTFYKYAMGWYRQAPGKETELVDAISSGGRTNYADSVKGRFTISRDNAMNTVYLHMNSLNPEDTAVYFCAADRSYRSGYNYWGQGTQVTVSS,high polyreactivity
11,QVQLVESAVGLVQAGGSLRLSCAASGILFARYAMGWYRQAPGKERELVAVISGSGGSTYYADSVKGRFTISRDNAKNTVYLQMNSLKPEDTAVYYCNAEFESGHDLDWYDYWGQGTQVTVSS,low polyreactivity
12,QVQLVESCGCLVQAGGSLRLSCAASGIIFFPYAMGWYRQAPGKEREFVAAITSRRGSTYYADSVKGRFTISRDNPKNTVYLQMNILKPEDTAVYYCAAAWCAPSRFFSAFDYWGQGTQVTVSS,low polyreactivity
13,QVQLVESCGGLDQAGGSLRLSCAASGFMFHLYGMGWYRQAPGKEMEWVAAISSGGRTYYADSVKGRFTISRDNAKNTVYLQMNSLKPEDTAVYYCAVYVAYLYSYYYWGQGTQETVSS,low polyreactivity
14,QVQLVESCGGLVQAGASLRLSCAASGRTFSENAMGWYRQARGKEREFVAGNSFSGDGRTYYADSVKGRFTISRDNAKNTVYLQMNSLKPEDTAVYYCAAPHRSRTHELDYWGQGTQVTVSS,low polyreactivity
15,QVQLVESCGGLVQAGGSLRLSCAASGFIFDWYAMGWYRQAPGKVRELVAAITTDGGGTYYADSVKGRFTISRDNAKNNVYLQMNSLKPEDTAVYDCAADGVSTSPQYDYWGQGTQVTVSS,high polyreactivity
16,QVQLVESCGGLVQAGGSLRLSCAASGFIFTYYVMGWYRQAPGKERELVATISISDGTTYADSVKGRFTISRDNAKNTVYLQMNSLKPEDTAVYYCAADNSFTDNYWGQGTQVTVSS,low polyreactivity
17,QVQLVESCGGLVQAGGSLRLSCAASGGTFGPYAMAWYRQAPGKEREFVARITGSGTRTYYADSVKGRFTISRDNAKNTVYLQMNSLKPEDTAVYYCATSHSRGSRGHDYWGQGTQVTVSS,low polyreactivity
18,QVQLVESCGGLVQAGGSLRLSCAASGLTFLAYDMGWYRQAPGKEREFVAAITGGGSTHYADSVKGRFTISRDNAKTTVYLQMNSLKTEDTAVYYCNADVYVYSVTSHYPSYRLDYWGQGTQVTVSS,high polyreactivity
19,QVQLVESCGGLVQAGGSLRLSCAASGRTFSLYTMGWYRQAPGKERELVATIRSRGGSTYYADSVKGRFTISRDNAKNTFYLQMNSLIPEDTAVYYCATVLRGPFLGWHGGPMYHWGQGTQVTVSS,low polyreactivity
20,QVQLVESCGGLVQAGGSLRLSCAASGRTIASYAMGWYRQAPGKERELVAAITSGGSTYYADSVKGRFTISRDNAMNTVYLQMNSLKPEDTAVYYCARKHAIWRGYDYWGQGTQVTVSS,low polyreactivity
21,QVQLVESCGGLVQAGGSLRLSCAASGSIFADYAMGWYRQAPGKEREFVAAITRSGTSTYYADSVKGRFTISRDNAKNTVYLQMTSLKPVDTPVYYCAKTEVLLYLYTLDYWGQGTQVTVSS,low polyreactivity
